Results reported in PMC2990977.

Target: 80S ribosome from Thermomyces lanuginosus (Thermomyces lanuginosus)
Test: co-sedimentation

Substance “eukaryotic elongation factor 2 (eEF2) from Thermomyces lanuginosus (natural protein)” has an occupancy relative to Sordarin-trapped eEF2 of 60 to 70% and a percent eEF2 bound (GDP only) of 16%.
